Assay results from patent publication US20040198705A1, “Modulation of steroid hormone uptake” (priority 2001, published 2004).
Like-named read-outs stand apart in the source and are kept apart here. Values belong to the molecule of their own block, whether it stands above or below them.

What was measured:
purified native megalin = test: surface plasmon resonance, native megalin immobilised (51.4 fmol/mm^2), 1 µM testosterone/SHBG complexes in flow, blank chip subtracted
[1] = biological target: megalin expressed on Brown Norway yolk sac carcinoma cells (BN16 cells) (UniProt P98158); test: cell-based or functional assay
[2] = biological target: SHBG receptors in bovine endometrium membranes permeabilized in digitonin (bovine); test: homologous competition, filter binding: 125I-rSHBG (400 pg) on 600 µg bovine endometrium membranes permeabilized in digitonin, with testosterone, 4 °C 18 h; unlabelled rSHBG varied, 125I-rSHBG as the displaced tracer
[3] = biological target: SHBG receptors in bovine epididymis membranes permeabilized in digitonin (bovine); test: homologous competition, filter binding: 125I-rSHBG (400 pg) on 600 µg bovine epididymis membranes permeabilized in digitonin, with testosterone, 4 °C 18 h; unlabelled rSHBG varied, 125I-rSHBG as the displaced tracer
[4] = biological target: SHBG receptors in bovine epididymis membranes permeabilized in digitonin (bovine); test: radioligand filter binding to digitonin-permeabilized bovine epididymis membranes, competition with unlabelled rSHBG
[5] = test system: SHBG receptors in bovine epididymis membranes; test: 125I-rSHBG binding to permeabilized epididymis membranes
Experimental: (§1) FIG. 8. 125I-rSHBG (400 pg) was incubated with 600 μg of membrane preparations from bovine epididymis (A) or endometrium (B) in the presence of the indicated concentrations of unlabelled rSHBG. Values are given as a percentage of 125I-rSHBG bound in the absence of competitor (100%). The data represent the means of four individual experiments (±S.E.M.). Where no error bar is shown, the values are smaller than the actual symbol.
(§2) To test whether recombinant SHBG (rSHBG) interacts with SHBG receptors and in particular whether rSHBG can act as an inhibitor of SHBG binding to an SHBG receptor, the binding of rSHBG to bovine epididymis and endometrium membranes permeabilized in digitonin was assayed. Binding was performed in the presence of testosterone, to achieve steroid hormone-steroid hormone binding protein complex formation.
(§3) Briefly, purified recombinant SHBG was labelled with ^125I using the Iodo-Gen™ method [specific radioactivity (13-15)×10^3 c.p.m./ng]. 400 pg of ^125I—SHBG was mixed with 600 μg of purified membranes (either bovine epididymis or bovine endometrium membranes permeabilized in digitonin) in a total volume of 200 μl of reaction buffer [10 mM Hepes, pH 7.4, 2 mM CaCl2, 1 mM MgCl2, 1% (w/v) BSA, 1 µM ZnCl2, […] testosterone and […] digitonin]. […] The filters were washed extensively with reaction buffer and the amount of bound radioactivity was determined.

[6] = test system: SHBG receptors in bovine endometrium membranes; test: 125I-rSHBG binding to permeabilized endometrium membranes; settings: bovine endometrium membranes permeabilized in digitonin, competition with unlabelled rSHBG
Experimental: as §1, §2, §3

SHBG receptor = settings: read-out: Kd of receptor binding, cited from earlier work

UniProt P98158, sequence (P98158 26-4660 limits assumed): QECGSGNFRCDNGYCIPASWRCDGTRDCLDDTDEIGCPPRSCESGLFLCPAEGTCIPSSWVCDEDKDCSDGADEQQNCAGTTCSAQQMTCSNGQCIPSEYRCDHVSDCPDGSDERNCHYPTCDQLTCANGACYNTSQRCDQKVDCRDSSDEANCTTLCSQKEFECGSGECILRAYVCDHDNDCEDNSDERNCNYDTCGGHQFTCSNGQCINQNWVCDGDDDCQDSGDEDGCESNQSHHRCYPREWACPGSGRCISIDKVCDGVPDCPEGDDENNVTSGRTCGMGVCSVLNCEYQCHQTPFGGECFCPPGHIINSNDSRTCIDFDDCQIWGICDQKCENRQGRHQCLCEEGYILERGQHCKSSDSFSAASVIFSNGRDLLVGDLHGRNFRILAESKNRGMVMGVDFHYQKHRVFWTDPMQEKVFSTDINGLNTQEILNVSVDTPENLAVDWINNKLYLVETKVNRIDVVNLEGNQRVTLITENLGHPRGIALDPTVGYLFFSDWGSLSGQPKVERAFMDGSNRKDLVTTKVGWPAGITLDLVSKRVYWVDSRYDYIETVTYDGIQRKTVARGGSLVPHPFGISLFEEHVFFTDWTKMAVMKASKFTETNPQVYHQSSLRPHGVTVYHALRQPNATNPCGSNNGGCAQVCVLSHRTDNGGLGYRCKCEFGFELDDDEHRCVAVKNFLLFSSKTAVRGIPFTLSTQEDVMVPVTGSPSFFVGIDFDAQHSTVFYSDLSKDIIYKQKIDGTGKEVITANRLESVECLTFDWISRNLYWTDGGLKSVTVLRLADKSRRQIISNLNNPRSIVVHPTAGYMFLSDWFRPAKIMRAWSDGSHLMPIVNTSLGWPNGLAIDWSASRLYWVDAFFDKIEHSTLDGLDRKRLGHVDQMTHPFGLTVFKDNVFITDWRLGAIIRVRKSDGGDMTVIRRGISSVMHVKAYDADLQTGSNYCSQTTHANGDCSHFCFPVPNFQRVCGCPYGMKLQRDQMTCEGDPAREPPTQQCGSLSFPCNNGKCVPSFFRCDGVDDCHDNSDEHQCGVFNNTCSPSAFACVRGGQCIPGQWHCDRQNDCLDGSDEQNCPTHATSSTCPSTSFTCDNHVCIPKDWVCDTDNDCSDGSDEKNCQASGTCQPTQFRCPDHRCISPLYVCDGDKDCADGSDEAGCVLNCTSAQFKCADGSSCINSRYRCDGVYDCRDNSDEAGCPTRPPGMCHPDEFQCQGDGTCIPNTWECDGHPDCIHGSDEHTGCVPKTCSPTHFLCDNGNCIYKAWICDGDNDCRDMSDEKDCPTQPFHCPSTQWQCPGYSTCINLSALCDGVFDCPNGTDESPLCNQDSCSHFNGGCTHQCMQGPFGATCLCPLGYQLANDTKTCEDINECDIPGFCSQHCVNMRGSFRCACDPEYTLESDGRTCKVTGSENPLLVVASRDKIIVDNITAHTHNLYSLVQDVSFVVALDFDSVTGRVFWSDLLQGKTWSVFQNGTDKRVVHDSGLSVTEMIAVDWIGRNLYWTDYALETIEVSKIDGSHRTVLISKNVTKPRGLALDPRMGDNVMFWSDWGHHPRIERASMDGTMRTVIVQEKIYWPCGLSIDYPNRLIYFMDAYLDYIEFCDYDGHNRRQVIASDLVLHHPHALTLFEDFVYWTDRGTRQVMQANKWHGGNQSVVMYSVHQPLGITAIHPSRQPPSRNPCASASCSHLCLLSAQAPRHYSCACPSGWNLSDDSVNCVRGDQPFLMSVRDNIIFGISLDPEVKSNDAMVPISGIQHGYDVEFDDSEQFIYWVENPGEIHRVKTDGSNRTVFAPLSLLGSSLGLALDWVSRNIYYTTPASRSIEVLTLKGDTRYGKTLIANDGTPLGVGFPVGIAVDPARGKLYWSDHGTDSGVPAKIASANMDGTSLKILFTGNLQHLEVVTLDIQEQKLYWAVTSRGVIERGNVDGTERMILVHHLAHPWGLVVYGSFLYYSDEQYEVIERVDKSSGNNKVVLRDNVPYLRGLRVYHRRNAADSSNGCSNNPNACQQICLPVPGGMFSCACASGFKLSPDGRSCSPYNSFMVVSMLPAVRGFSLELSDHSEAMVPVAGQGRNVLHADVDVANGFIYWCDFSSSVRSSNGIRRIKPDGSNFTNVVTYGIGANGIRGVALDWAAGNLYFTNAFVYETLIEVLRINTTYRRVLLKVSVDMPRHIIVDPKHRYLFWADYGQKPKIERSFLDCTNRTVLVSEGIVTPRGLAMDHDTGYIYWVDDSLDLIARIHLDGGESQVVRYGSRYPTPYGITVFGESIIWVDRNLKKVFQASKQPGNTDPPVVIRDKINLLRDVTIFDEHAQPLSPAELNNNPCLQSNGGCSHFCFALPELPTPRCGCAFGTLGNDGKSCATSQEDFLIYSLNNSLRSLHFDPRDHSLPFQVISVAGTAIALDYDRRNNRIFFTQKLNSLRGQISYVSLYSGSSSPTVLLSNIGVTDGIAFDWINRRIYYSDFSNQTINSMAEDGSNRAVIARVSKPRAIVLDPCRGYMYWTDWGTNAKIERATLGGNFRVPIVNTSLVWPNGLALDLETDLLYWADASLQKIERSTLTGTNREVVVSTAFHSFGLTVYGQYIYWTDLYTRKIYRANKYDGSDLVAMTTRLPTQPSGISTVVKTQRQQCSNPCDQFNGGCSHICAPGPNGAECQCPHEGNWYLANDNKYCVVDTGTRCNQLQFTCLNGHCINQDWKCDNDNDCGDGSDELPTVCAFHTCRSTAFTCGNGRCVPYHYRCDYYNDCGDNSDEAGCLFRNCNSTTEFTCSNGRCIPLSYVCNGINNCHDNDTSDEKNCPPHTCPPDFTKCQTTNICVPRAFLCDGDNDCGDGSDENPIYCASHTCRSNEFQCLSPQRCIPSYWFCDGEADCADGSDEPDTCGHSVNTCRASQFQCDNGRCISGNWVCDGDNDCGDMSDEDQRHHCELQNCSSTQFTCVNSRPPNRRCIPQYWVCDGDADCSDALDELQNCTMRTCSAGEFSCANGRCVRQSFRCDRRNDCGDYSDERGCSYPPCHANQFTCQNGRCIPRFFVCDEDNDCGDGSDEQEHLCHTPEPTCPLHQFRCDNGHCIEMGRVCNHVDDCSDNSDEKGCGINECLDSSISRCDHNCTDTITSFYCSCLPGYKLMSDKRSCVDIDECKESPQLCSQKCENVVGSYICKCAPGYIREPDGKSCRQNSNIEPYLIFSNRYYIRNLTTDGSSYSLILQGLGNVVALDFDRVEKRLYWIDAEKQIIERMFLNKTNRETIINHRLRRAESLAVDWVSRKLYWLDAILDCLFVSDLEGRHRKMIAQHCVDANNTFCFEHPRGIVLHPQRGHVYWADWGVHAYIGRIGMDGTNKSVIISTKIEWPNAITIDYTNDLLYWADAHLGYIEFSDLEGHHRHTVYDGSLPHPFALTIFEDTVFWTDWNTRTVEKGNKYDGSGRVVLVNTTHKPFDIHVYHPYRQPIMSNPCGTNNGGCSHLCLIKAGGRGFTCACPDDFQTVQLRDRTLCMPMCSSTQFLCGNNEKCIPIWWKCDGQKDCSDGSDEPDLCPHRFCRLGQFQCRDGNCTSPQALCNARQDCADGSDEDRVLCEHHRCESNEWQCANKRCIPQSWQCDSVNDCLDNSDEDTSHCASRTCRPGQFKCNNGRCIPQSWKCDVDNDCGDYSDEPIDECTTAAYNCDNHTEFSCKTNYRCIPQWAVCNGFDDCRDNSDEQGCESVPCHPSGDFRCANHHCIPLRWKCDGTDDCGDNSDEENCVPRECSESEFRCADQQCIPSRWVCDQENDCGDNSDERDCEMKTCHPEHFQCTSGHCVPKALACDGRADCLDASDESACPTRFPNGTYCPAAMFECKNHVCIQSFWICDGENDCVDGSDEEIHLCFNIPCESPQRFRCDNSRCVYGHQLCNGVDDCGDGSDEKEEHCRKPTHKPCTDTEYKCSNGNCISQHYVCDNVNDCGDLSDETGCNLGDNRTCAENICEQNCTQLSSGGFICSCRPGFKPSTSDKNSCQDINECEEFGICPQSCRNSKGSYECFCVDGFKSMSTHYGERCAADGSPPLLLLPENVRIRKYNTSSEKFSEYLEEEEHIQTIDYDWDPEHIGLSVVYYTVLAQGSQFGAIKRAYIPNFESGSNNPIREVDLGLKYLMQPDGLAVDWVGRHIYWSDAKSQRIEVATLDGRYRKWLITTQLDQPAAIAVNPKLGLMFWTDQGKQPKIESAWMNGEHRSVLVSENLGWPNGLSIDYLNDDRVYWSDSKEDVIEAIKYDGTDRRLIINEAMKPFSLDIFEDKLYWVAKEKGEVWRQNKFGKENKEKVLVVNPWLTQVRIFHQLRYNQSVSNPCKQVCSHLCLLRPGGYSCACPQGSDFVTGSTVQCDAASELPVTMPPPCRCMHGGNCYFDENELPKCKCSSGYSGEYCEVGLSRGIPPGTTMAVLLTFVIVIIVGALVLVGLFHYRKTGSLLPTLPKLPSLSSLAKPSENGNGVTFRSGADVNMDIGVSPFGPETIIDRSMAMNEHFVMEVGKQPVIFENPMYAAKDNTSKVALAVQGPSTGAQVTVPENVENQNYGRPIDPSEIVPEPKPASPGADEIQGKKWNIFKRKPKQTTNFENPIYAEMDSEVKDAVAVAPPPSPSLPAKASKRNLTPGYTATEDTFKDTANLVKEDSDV

Molecule: testosterone/SHBG complex (sex hormone binding globulin with bound testosterone) (from UniProt P04278 30-402) (ligand)
Kd (purified native megalin): 140 nM

Molecule: complexes of [3H]-dihydrotestosterone (DHT) and sex hormone binding globulin (SHBG) (ligand)
cell-associated [3H]-DHT after 4 hours at 37° C. in the presence of GST (control) [1]: 300000 cpm

B2: SHBG: native sex hormone-binding globulin, plasma carrier of androgens and estrogens (protein, listed as Homo sapiens)
chain: MESRGPLATSRLLLLLLLLLLRHTRQGWALRPVLPTQSAHDPPAVHLSNGPGQEPIAVMTFDLTKITKTSSSFEVRTWDPEGVIFYGDTNPKDDWFMLGLRDGRPEIQLHNHWAQLTVGAGPRLDDGRWHQVEVKMEGDSVLLEVDGEEVLRLRQVSGPLTSKRHPIMRIALGGLLFPASNLRLPLVPALDGCLRRDSWLDKQAEISASAPTSLRSCDVESNPGIFLPPGTQAEFNLRDIPQPHAEPWAFSLDLGLKQAAGSGHLLALGTPENPSWLSLHLQDQKVVLSSGSGPGLDLPLVLGLPLQLKLSMSRVVLSQGSKMKALALPPLGLAPLLNLWAKPQGRLFLGALPGEDSSTSFCLNGLWAQGQRLDVDQALNRSHEIWTHSCPQSPGNGTDASH
Kd (SHBG receptor; membrane suspensions): 50 nM
Kd (SHBG receptor; solubilized membranes): 500 nM

Now from value to molecule:

cell-associated [3H]-DHT after 4 hours at 37° C. in the presence of GST-RAP [1]: 70000 cpm
reduction in [3H]-DHT uptake in the presence of GST-RAP [1]: 75%
Molecule: fusion protein of GST and the receptor-associated protein (GST-RAP)

IC50 (read off the curve) [2]: 3000 nM
IC50 (read off the curve) [3]: 1000 nM
Kd [4]: 500 nM
Molecule: recombinant SHBG (rSHBG), 125I-labelled, in the presence of testosterone (from UniProt P04278 30-402) (ligand)

binding of 125I-labelled rSHBG (in words) ([5]; bovine epididymis membranes permeabilized in digitonin, competition with unlabelled rSHBG): saturable binding
Kd ([5]; permeabilized bovine epididymis membranes, in the presence of testosterone, read-out: affinity of binding (Kd)): 500 nM
binding of 125I-labelled rSHBG (in words) [6]: saturable binding
B1: rSHBG: recombinant SHBG, 125I-labelled, tested for binding to SHBG receptors (protein, UniProt P04278 30-402, looked up)
Sex hormone-binding globulin: LRPVLPTQSAHDPPAVHLSNGPGQEPIAVMTFDLTKITKTSSSFEVRTWDPEGVIFYGDTNPKDDWFMLGLRDGRPEIQLHNHWAQLTVGAGPRLDDGRWHQVEVKMEGDSVLLEVDGEEVLRLRQVSGPLTSKRHPIMRIALGGLLFPASNLRLPLVPALDGCLRRDSWLDKQAEISASAPTSLRSCDVESNPGIFLPPGTQAEFNLRDIPQPHAEPWAFSLDLGLKQAAGSGHLLALGTPENPSWLSLHLQDQKVVLSSGSGPGLDLPLVLGLPLQLKLSMSRVVLSQGSKMKALALPPLGLAPLLNLWAKPQGRLFLGALPGEDSSTSFCLNGLWAQGQRLDVDQALNRSHEIWTHSCPQSPGNGTDASH
modifications: 125I-labelled
